According to patent publication US20240287489A1, “CHITINOLYTIC ENZYME-BASED PLANT PROTECTION AGENTS” (GLOBACHEM NV, priority 2021, published 2024):
Entries after “also recorded” stand apart in the source; their conditions may differ.

B1: Chitinase 2: chitinolytic enzyme from P. orarium, SEQ ID NO: 2, recombinant with PelB signal peptide and 6×His tag (protein, listed as Photobacterium orarium)
chain: MATANYNPDGVYSAGEQVIYQGATYQALRSTENEAPDTYLGDAWQQVNAQNVTSSTTPTYPAYQSSAVYVGGDHVSYNSQIYKAKWWTQGEAPDATPGTGVWEWVSADNNPDPGPGPDPDPTPEPTPANGIIGQNPDGSYIMSKTYLDAREAELTSSPEFAAVLASISTRDNAVVEAVVPGLSTNPDNVKRVEALISEQKWDALFPERNVVYTYSNFLKAVAKFKGFCATYTDERAAQSDAICAKSLAVMFAHFTQETGAHNPHSPYEEWRQGLFFVREAGCSEEASSCGYNSECAASNWQTEQWPCGTNPDGSYVKYFGRGAKQLSYHYNYGPFSDFIFNDVNVLLQDPDRVADSWLNLASAVFFFVYPQPPKPSMLHVIDGTWQPTAADIAEKRVPGFGVTTMIINGGIECTLDTEKPQSVNRIKYYRGHAAALGVAIPADEQLGCAGMKAFKKTGDSTFGLYWENDWSYYPDNPGGSSFACRIESGYQTAHTTLKKGDYAKCIQKYYGVTIE
modifications: PelB signal peptide; 6xHis tag; Chitinase 2
B2: Chitinase 4: chitinolytic enzyme from P. orarium, SEQ ID NO: 4, recombinant with PelB signal peptide and 6×His tag (protein, listed as Photobacterium orarium)
chain: MAQAAANCRPDGLYQTPGVTVPYCTVYDQDGREKMGVDHPRRVIGYFTSWRSGNDPQSSYLVNDIPWDSLTHINYAFVSIGSDGKVNIGNVNNPDNPAVGKEWPGVEIDPALGFKGHFGALATAKAQHGVKTLISIGGWAETGGHFDDNGNRVADGGFYTMTTNADGSINHQGIQTFADSAVAMMRQYKFDGLDIDYEYPTSMQGAGNPDDFAYSDAMRPHLMKSYHELMKVLREKLDQASAQDGHHYMLTIAAPSSGYLLRGMETMSVTKYLDYVNIMSYDLHGAWNDYVGHNASLFDSGLDAELEAGNVYGTAQYKKTGYLNTDWAYHYFRGSMPAGRINIGVPYYTRGWQGVTGGTNGLWGKAALPNQSDCPTGTGAGTSNCGYGAIGIDNMWHDKDANGNEMGAGSNPMWHAMNLANGVYGSYTAAYGLDPVNDPQDALTGTYTRHYDSVSVAPWLWNADKKVFLSTEDKESINTKADYVIEQGIGGIMFWELAGDYSCYNLDANGNRTTVDPTENACKTGNGEYHMGDTMTKAIHNKFATATPYGNTLAEGAIPTEAVNIDVSVTGFKVGDQNYPLNPTMTLTNKTGQTLPGGTEFQFDIPTSTPDNMSDQSGANLQVISSGHTRGDNIGGLDGNFHRVAFTLPSWKQLGNNESFELTLNYFLPISGPANYSVRVNNADYALAFEQPDLPIADLSNGGGDNGGGDGNNGDCVTTGVNTYPNWPQTDWAGNPSHAGTGDKIIYNGAVYQAKWWTNSVPGSDGSWDTVCTVQIE
modifications: PelB signal peptide; 6xHis tag; Chitinase 4
B3: Chitinase 5: chitinolytic enzyme from P. orarium, SEQ ID NO: 5, recombinant with PelB signal peptide and 6×His tag (protein, listed as Photobacterium orarium)
chain: MAMGWSQININGVQKWEEAYSLNVDAANEIITIGAADTAGALYASQSLLQLVDGNKVPEVQITDAPRFAYRGFSVDAVRNFRTKDAIIQLLDQMAAFKLNKLHLRLADDEGWRIEIAGLPELTDVGATRCHDPEEKACILPFLGAGPDGSPESNGYYTATDYQDILSHAAALNIEVVPEIDIPGHAHAAIKAMEARYDHYAAQGNMAEANKYLLTDFNDTTQYLSVQMFTDNAINVCMESSYNFVDAVVSGLVSLHQGVQPLKTFHFGGDEIAGAWINSPACQDFIANNTDGVHSVSDLSRYFVERISVITANYGLDMAGWEDGLMHDGQVYPRSQMANNQLWGNAWQNIWEWGVADRAYNLANNDYKVVYNHATHLYFDHPYEPDPNERGYYWAPRFTDTRKTFGFMPDDVFANADFTRAGAPITKAEVVASAGVKKLLKPENVLGLQGSLWAEAVRTEDQFEGMIFPRVLGLAERAWHTATWEANDNAGIALDETGRNADYNHFANLLGQKVLPKLEQAGIAFNLPVPGGVIENGVLQANSTFPGLTIEYSTDQGTSWQSYDHLNPPAVAAGVQLRTVSGQRTSRVTTVNIE
modifications: PelB signal peptide; 6xHis tag; Chitinase 5

Tests used:
[1] = tested on: Gibberella zeae; format: cell-based; set-up: key: xx = no growth/strong inhibition; x = small inhibition; details: start concentration 100 μg/ml
[2] = Temperature, pH and NaCl optima and temperature stability of recombinant chitinases (reducing end assay); format: biochemical; details: for enzyme activity (relative): 20% (w/v) NaCl; for enzyme activity (relative) / Optimum salinity: pH 8, 30° C.; for Optimum pH: 30° C., pH 4-11; for Optimum salinity: 0-20% w/v NaCl
Protocol: All enzymes were first characterized regarding their temperature and pH-optima as well as the optimum NaCl content as the enzymes were isolated from a sea-water microorganism. As the future intention is to integrate these novel enzymes in a degradation processes of natural chitin, all parameters were determined using chitin powder as a substrate instead of pre-treated analogs such as colloidal chitin, glycol chitin or artificial fluorogenic substrates. […] (FIG. 5A). Next, enzyme temperature stability was investigated (FIG. 51). […] Enzyme C1 retained a 50% residual activity after 240 min incubation at 60° C., while the activity of the other chitinases dropped below 50% after 15 min and remained on that level.
Given the marine origin of the P. orarium strain, the effect of salt was also evaluated, testing the addition of NaCl to the standard buffer. […] Increasing NaCl amounts up to 20% (w/v) reduced enzyme activity substantially to 10% for C2, 4 and 5, with C1 and C3 showing highest tolerance (65% activity).
For the determination of enzymatic activity of recombinant chitinases, a reducing end assay was carried out [Svein et al., Carbohydr Polym, 2004. 56(1): p. 35-39.]. Fractions containing chitinases were incubated with 5% (w/v) chitin powder extracted from shrimp shells (˜400.000 g/mol; Carl Roth) in MAT buffer for 2 h in an overhead shaker at ambient temperature (standard conditions). Samples were centrifuged at 13000×g for 2 min and 40 μl of the supernatant was mixed with 40 μl 0.5 M NaOH and 40 μL of a reagent containing 1.5 mg/ml 3-Methyl-2-benzothiazolinonhydrazon and 0.75 mg/ml Dithiothreitol. Samples were incubated at 80° C. for 15 min and then thoroughly mixed with 80 μl of 0.5% (w/v) FeNH4(SO4)2)×12H2O, 0.5% (w/v) sulfamic acid and 0.25 M HCl. After cooling down to room temperature, 100 μl of the samples were measured at 620 nm. A calibration curve of N-acetyl-glucosamine was constructed freshly for each measuring cycle. One unit [U] was defined as the amount of enzyme required to release 1 μmol of reducing sugars per hour.
(§1) Enzyme samples were incubated at different temperature (10-60° C., 10° C. increment) and pH (4-11, increment 1) using different buffer systems (Acetate, Tris-HCl, MES, total molar concentration 100 mM), as well as NaCl content (0, 1. 2.5, 5, 10 and 20% w/v) to determine optimum reaction conditions. All experiments were carried out at 1.0 ml scale using 2 μM of the respective enzymes and a 5% (wv) suspension of chitin powder extracted from shrimp shells (˜400.000 g/mol; Carl, Roth) in 100 mM MAT buffer. For the determination of the substrate specificity, chitin powder (5% w/v), glycol chitin (10% v/v), colloidal chitin (5% w/v), chitosan [DA 15-25%, medium molecular weight, Sigma-Aldrich] (5% w/v) and microcrystalline cellulose powder (Sigma Aldrich) (5% w/v) were investigated, respectively. The effect of several potential co-factors on activity was elucidated at a concentration of 1 mM. Additionally, the effect of detergents [SDS 0.5% (w/v), Tween-20 and Triton X-100 both at 0.5% (v/v)] and chemicals (Imidazole 100 mM, EDTA 1 mM) on enzymatic activity was assessed. Samples were incubated in a thermomixer for 16 h at 900 rpm. After incubation, samples were analyzed using the enzyme assay. Thermostability was assessed after incubation of recombinant chitinases at 60° C. for different durations followed by the quantification of residual enzyme activity under standard assay conditions.

[3] = Substrate specificity, reducing end assay; format: biochemical; details: in % activity of chitin powder; 16 h at optimum conditions, 50 mg/ml substrate
Protocol: (§2) Different chitinous substrates were tested to assess the substrate affinity of the novel chitinases relative to untreated chitin powder. […] As expected, the conversion of colloidal chitin is more efficient compared to chitin powder as it provides an overall smaller particle size and thereby larger surface area. Chitosan powder (degree of acetylation: 15%) was also degraded efficiently and high chitosanase activity was observed especially for C1, C3, C4 and C5. Merely basal activity was detected when cellulose was utilized as a substrate for all enzymes.
The preparation of colloidal chitin was similar to the method described by Murthy and Bleakley with some minor differences [Murthy et al., Microbiol., 2012. 10(2): p. 1-5.]. Chitin powder (Carl Roth) was dissolved in concentrated hydrochloric acid (HCl) (5 g in 100 mL) and stirred at 4° C. for 24 h, after which the mixture was centrifuged at 4000×g for 15 min at 4° C. The precipitate was washed to neutral pH with distilled water and stored at 4° C.
as §1

[4] = TLC analysis of cleavage patterns with chitin standard molecules; format: biochemical; details: for hydrolysis products from chitin pentamers / hydrolysis products from chitin trimers: 4 mg/ml, 16 h, TLC; for cleavage mechanism (exo-/endo-chitinase activity): TLC of products from oligomeric or polymeric chitin substrates
Protocol: monomeric oligomers. Chitosan was degraded to a crude mixture of multiple oligomers ranging from dimers to pentamers and even larger undefined yet water-soluble fragments that migrated slightly from the starting point. Further analysis of the cleavage patterns was carried out using chitin standard molecules of DP2-DP6 and incubating them at 4 mg/ml concentration with the individual enzymes (FIG. 9).
Dimeric chitin molecules were not converted by any of the enzymes. […] All chitinases degraded chitin tetramers to dimers as a single product. […] Chitin hexamers were degraded to dimers and trimers. Although all chitinases are different in their structure and present different glycosyl hydrolase domains hydrolysis products in general were similar.
C2, 4 and 5 yielded similar product patterns when incubated with insoluble substrates. […] The presented data underline that the novel chitinases are all suited for the degradation of powdery chitin without any further harsh chemical pre-treatment.
Hydrolysis products were analyzed using 10×10 cm TLC Silica gel 60 F254 plates (Merck, Darmstadt, Germany) and a mixture of butanol:methanol:25% ammonia:H2O (5:4:2:1) as mobile phase. A total sample volume of 0.5 μl was applied in 0.25 μl spots. Chitin standard sugars (Megazyme, Chicago, USA) (5 mg/ml) were applied to the plate (0.5 μL in 0.25 μL spots) as size standard for the determination of the DP. After separation, the plate was air-dried and the developing solution (200 ml Acetone, 30 ml phosphoric acid (85%), 4 ml aniline, 4 g diphenylamine) was sprayed on the plate followed by spot visualization at 300° C. using a heat gun.

[5] = tested on: Fusarium oxysporum; test: Minimum inhibitory concentration (MIC) test on fungal pathogens; format: cell-based; set-up: key: xx = no growth/strong inhibition; x = small inhibition; details: start concentration 100 μg/ml
[6] = Substrate specificity, reducing end assay; format: biochemical; details: in % activity of chitin powder; 16 h at optimum conditions, 50 mg/ml substrate; remark: listed apart in the source
Protocol: as §2, §1

Row | Molecule | growth inhibition of Gibberella zeae in the MIC test [1] | enzyme activity (relative) [2] [%] | Optimum pH ([2]; chitin powder, listed as C2) | Optimum salinity ([2]; chitin powder) [% NaCl] | Relative activity, Colloidal chitin [3] [%] | hydrolysis products from chitin pentamers [4] | hydrolysis products from chitin trimers [4] | cleavage mechanism (exo-/endo-chitinase activity) [4] | growth inhibition of Fusarium oxysporum in the MIC test [5] | Relative activity, Cellulose [6] [%] | Relative activity, Chitin [6] [%] | Relative activity, Chitosan [6] [%] | Optimum pH ([2]; chitin powder) | Optimum temperature ([2]; chitin powder, pH 8, range 10-60° C.) [°C] | Optimum pH ([2]; chitin powder, listed as C5) | cleavage mechanism (exo-/endo-chitinase activity) ([4]; listed as C5)
1 | B1 | xx | 10 | 10 | 1 | 191.4 ± 4.7 | trimers and dimers | no activity | endo-chitinase activity | xx | 10.0 ± 1.1 | 100 | 71.4 ± 6.7 | – | – | – | –
2 | B2 | x | – | – | 1 | 117.7 ± 6.3 | trimers and dimers | dimers and monomers | endo-chitinase activity | xx | 10.4 ± 0.9 | 100 | 141.3 ± 5.5 | 8 | 30 | – | –
3 | B3 | xx | 10 | – | 0 | 164.1 ± 2.8 | trimers and dimers | no activity | – | xx | 11.2 ± 1.1 | 100 | 117.8 ± 1.7 | – | – | 9 | no exochitinase activity; also recorded: endo-chitinase activity
